Experimental data published in patent US20040049009A1, “Methods for improving the antagonistic/agonistic properties of peptidic antagonists/agonists of the corticotropin-releasing factor receptor (crfr)” (priority 2000, published 2004).
Positions count from the first letter of the chain named. Ends that are not written are not given here.

T1: rat CRF binding protein C-terminally fused with a His6 sequence (rat) (UniProt P24388)
T1 sequence: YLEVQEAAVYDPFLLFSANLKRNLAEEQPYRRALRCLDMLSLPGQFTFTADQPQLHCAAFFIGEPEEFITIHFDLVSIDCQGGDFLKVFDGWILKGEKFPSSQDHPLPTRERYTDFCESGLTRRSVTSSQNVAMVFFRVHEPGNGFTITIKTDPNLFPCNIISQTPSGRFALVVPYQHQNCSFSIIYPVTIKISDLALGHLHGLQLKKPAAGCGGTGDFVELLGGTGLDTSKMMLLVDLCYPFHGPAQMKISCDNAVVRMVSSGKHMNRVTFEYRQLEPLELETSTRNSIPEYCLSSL

B1: sauvagine (ligand)
peptide: QGPPISIDLSLELLRKMIEIEKQEKEKQQAANNRLLLDTI
modifications: ends and bridges not checked
B2: [Ala^21,23Arg^22]Svg (peptide)
peptide: B1 peptide with E21A, K22R, Q23A
modifications: ends and bridges not checked

How the values were obtained:
[1] = target: T1, rat CRF binding protein C-terminally fused with a His6 sequence (rat); assay: SPA competition with 0.1 nM [125I-Tyr0]h/rCRF, His-tagged rCRFBP; 95% CI (45-70)
[2] = target: mouse CRF receptor, type 2β (mouse) (UniProt Q60748); assay: SPA competition with 0.05 nM [125I-Tyr0]Svg, HEK-293 membranes; 95% CI (0.72-1.1)
[3] = target: mouse CRF receptor, type 2β (mouse) (UniProt Q60748); assay: SPA competition with 0.05 nM [125I-Tyr0]Svg, HEK-293 membranes; 95% CI (0.56-1.1)
[4] = target: T1, rat CRF binding protein C-terminally fused with a His6 sequence (rat); assay: SPA competition with 0.1 nM [125I-Tyr0]h/rCRF, His-tagged rCRFBP; 95% CI (0.66-1.0)

Row | Binder | IC50 [1] [nM] | IC50 [2] [nM] | IC50 [3] [nM] | IC50 [4] [nM]
1 | B1 | 57 | 0.92 | – | –
2 | B2 | – | – | 0.82 | 0.84
